Here are results for 2 substances from US20110165156A1.

In general, % inhibition refers to the share of the control response that was lost under treatment.

Common to all, as to test: cell-based or functional assay
Experiment [1] addresses CSF-1R of cynomolgous monocytes (cynomolgous).
Experiment [2] deals with human mutant CSF-1R L301S Y969F, on cells (human) (UniProt P07333).
Experiment [3] has as its target human wildtype CSF-1R (wt CSF-1R), full-length, on cells (human) (UniProt P07333).

In experiment [1], “Anti CSF-1R SC 2-4A5 (Santa Cruz Biotechnology, US) (antibody)” came in with a % inhibition (of survival) = (100% - % survival) of 69% and a % survival (cynomolgous monocytes, 5 µg/ml antibody) of 31%. In experiment [2], this substance yielded a Mutant CSF-1R IC30 (cell viability, 3D culture, CellTiterGlo) of 2.56 µg/mL and a Mutant CSF-1R IC50 (cell viability, 3D culture, CellTiterGlo) of 10 µg/mL. For the same substance, in experiment [3], the wtCSF-1R IC30 (cell viability, 3D culture, CellTiterGlo) turned out to be 16.6 µg/mL and the wtCSF-1R IC50 (cell viability, 3D culture, CellTiterGlo) was determined as 10 µg/mL.

In experiment [2], “goat polyclonal anti-CSF-1R antibody ab10676 (abcam)” showed a % inhibition at 20 µg/ml, mutant CSF-1R cells of 0% and a Mutant CSF-1R IC30 (cell viability, 3D culture, CellTiterGlo) of more than 20 µg/mL. This substance also displayed a wtCSF-1R IC30 (cell viability, 3D culture, CellTiterGlo) in experiment [3] of 14.2 µg/mL.
